Results: article PMC3386216 (Molecular Biology of the Cell, 2012)

B1: His- and T7-tagged Vps74 (natural protein)
chain: MSTLQRRRVNRADSGDTSSIHSSANNTKGDKIANIAVDGDDDNGTNKKIAYDPEESKLRDNINIPTLTLMEEVLLMGLRDREGYLSFWNDSISYALRGCIIIELALRGKIRILDDSARKRFDLSERLIEVIDSSKTGEVLLDETLQLMKNDEPLSISNWIDLLSGETWNLLKINYQLKQVRERLAKGLVDKGVLRTEMKNFFLFDMATHPIADASCKEAIKRRVLSVLVSRNMELSYNEYFPETTSFKIIRTLALICGSYGANVLENVLTTLEYEKRDKAISRAEEIMAQFSQYPFDLEKETELGVSVNLNKEVKEEIENNPGHDLQLEVIAGVFEVFSRMDMLL
B2: Vps74ΔN59 (domain or fragment)
chain: DNINIPTLTLMEEVLLMGLRDREGYLSFWNDSISYALRGCIIIELALRGKIRILDDSARKRFDLSERLIEVIDSSKTGEVLLDETLQLMKNDEPLSISNWIDLLSGETWNLLKINYQLKQVRERLAKGLVDKGVLRTEMKNFFLFDMATHPIADASCKEAIKRRVLSVLVSRNMELSYNEYFPETTSFKIIRTLALICGSYGANVLENVLTTLEYEKRDKAISRAEEIMAQFSQYPFDLEKETELGVSVNLNKEVKEEIENNPGHDLQLEVIAGVFEVFSRMDMLL

Tests used:
[1] = molecular target: T1, GST-Sac1 (amino acids 2–521) (S. cerevisiae, UniProt P32368 2-521); test: pull-down
T1 sequence: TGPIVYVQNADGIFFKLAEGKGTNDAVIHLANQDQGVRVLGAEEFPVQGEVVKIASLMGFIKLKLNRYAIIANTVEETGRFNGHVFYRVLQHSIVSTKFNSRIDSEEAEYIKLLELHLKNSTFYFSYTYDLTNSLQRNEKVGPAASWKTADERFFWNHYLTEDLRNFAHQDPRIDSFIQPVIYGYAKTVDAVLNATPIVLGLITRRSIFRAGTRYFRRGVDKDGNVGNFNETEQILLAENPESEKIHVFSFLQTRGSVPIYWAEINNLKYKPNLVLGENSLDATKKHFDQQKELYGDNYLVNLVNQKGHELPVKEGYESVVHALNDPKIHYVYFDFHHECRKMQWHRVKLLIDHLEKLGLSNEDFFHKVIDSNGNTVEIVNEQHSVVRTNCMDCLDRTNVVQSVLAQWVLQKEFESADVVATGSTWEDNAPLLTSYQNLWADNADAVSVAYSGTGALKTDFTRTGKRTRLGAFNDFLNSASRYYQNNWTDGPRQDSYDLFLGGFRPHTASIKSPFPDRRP

[2] = molecular target: Sac1 (amino acids 2–521) (untagged recombinant, SPR) (S. cerevisiae) (UniProt P32368); test: SPR

Binder | binding result [1] | Kd [2] [µM]
B1 | binds | 3.8
B2 | – | 4.2
